Molecular target: T1, human prostate specific membrane antigen (PSMA) (human, UniProt Q04609 1-750)
T1 construct: PSMA was on the cell surface: LNCaP and 22Rv1 (endogenous), PC3-PSMA and Jurkat-PSMA (lentiviral transduction); also called hPSMA
Assay: flow cytometry of phage scFv clones after cell panning on Jurkat-PSMA (parental Jurkat as negative selection)
Text: A collection of human scFv antibody phage display libraries (diversity=10×10¹⁰) constructed by Eureka Therapeutics (i.e., the E-ALPHA® phage display library) was used for the selection of human mAbs specific to PSMA. Specifically, the E-ALPHA® phage display library was used to pan against a Jurkat cell line that has been engineered to express PSMA. The parental Jurkat cell line was used for negative selection. […] The VL in each scFv is underlined, the VH in each scFv is double underlined, and the linker is in bold italic type. The CDRs are in underlined bold type and double underlined bold type.

T1 sequence (Q04609 whole entry): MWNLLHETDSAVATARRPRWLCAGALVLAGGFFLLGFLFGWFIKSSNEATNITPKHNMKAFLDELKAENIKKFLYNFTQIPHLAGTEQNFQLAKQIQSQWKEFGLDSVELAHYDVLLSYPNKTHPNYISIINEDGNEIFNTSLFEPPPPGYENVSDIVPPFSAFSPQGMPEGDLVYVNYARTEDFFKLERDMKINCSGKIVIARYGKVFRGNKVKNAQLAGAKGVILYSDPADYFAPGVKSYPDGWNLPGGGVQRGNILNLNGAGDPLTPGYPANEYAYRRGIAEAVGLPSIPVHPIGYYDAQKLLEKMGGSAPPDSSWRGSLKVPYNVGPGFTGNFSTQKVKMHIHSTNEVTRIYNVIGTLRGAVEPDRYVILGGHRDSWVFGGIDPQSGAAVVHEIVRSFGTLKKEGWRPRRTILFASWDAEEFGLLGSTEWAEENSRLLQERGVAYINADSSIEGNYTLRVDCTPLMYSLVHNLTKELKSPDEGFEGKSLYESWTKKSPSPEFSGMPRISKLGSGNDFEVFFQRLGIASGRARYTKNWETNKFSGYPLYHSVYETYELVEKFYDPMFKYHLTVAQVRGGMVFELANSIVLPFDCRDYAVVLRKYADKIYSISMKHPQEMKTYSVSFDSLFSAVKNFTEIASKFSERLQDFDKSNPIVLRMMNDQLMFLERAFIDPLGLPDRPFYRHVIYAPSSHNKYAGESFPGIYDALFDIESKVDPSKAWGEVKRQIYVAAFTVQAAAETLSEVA

B1: Clone A anti-PSMA scFv (scFv)
scFv: QSVLTQPPSVSGAPGQRVTISCTGSSSNIGAGYDVHWYQQLPGTAPKLLIYGNSNRPSGVPDRFSGSKSGTSASLAITGLQAEDEADYYCQSYDSSLSGYVFGTGTKVTVLGSRGGGGSGGGGSGGGGSLEMAEVQLVQSGAEVKKPGESLKISCKGSGYSFTSYWIGWVRQMPGKGLEWMGIIYPGDSDTRYSPSFQGQVTISADKSISTAYLQWSSLKASDTAMYYCARSMGSSLYASSDVWGQGTLVTVSS
notes: Human scFv (VL-linker-VH) isolated from the E-ALPHA phage display library; the phage coat fusion is not described; also called phage clone A
**Q.** Does B1 bind?
**A.** Result: binds

Reference: patent US20220185910A1 (EUREKA THERAPEUTICS, published 2022)
